Assay results as given in IntAct's records for PubMed 31749804.

B1: Complement C1r subcomponent (Homo sapiens), P00736 (parent)
chain: MWLLYLLVPALFCRAGGSIPIPQKLFGEVTSPLFPKPYPNNFETTTVITVPTGYRVKLVFQQFDLEPSEGCFYDYVKISADKKSLGRFCGQLGSPLGNPPGKKEFMSQGNKMLLTFHTDFSNEENGTIMFYKGFLAYYQAVDLDECASRSKSGEEDPQPQCQHLCHNYVGGYFCSCRPGYELQEDTHSCQAECSSELYTEASGYISSLEYPRSYPPDLRCNYSIRVERGLTLHLKFLEPFDIDDHQQVHCPYDQLQIYANGKNIGEFCGKQRPPDLDTSSNAVDLLFFTDESGDSRGWKLRYTTEIIKCPQPKTLDEFTIIQNLQPQYQFRDYFIATCKQGYQLIEGNQVLHSFTAVCQDDGTWHRAMPRCKIKDCGQPRNLPNGDFRYTTTMGVNTYKARIQYYCHEPYYKMQTRAGSRESEQGVYTCTAQGIWKNEQKGEKIPRCLPVCGKPVNPVEQRQRIIGGQKAKMGNFPWQVFTNIHGRGGGALLGDRWILTAAHTLYPKEHEAQSNASLDVFLGHTNVEELMKLGNHPIRRVSVHPDYRQDESYNFEGDIALLELENSVTLGPNLLPICLPDNDTFYDLGLMGYVSGFGVMEEKIAHDLRFVRLPVANPQACENWLRGKNRMDVFSQNMFCAGHPSLKQDACQGDSGGVFAVRDPNTDRWVATGIVSWGIGCSRGYGFYTKVLNYVDWIKKEMEEED
partner: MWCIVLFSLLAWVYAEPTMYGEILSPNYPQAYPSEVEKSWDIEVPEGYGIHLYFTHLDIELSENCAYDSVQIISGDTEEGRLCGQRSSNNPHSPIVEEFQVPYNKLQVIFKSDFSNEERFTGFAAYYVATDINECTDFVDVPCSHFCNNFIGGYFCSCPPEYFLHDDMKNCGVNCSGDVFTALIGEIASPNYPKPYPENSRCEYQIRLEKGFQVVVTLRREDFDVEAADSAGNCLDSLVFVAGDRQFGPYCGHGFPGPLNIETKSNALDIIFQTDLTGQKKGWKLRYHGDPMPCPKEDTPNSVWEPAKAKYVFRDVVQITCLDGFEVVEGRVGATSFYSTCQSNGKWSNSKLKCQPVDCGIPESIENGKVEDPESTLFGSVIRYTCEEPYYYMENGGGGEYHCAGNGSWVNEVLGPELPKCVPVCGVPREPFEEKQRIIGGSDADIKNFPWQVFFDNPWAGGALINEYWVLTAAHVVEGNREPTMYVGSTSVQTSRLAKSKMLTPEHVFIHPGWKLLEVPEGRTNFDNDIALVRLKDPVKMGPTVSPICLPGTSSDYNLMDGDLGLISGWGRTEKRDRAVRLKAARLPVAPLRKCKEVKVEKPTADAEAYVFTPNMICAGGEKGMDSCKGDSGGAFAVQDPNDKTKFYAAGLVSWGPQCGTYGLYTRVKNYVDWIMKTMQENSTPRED

Variants of: B1
Details: with c1s_human C1S

Variant	effect of a mutation on the interaction
D290G	with no effect
